Source: publication PMC4794898

Columns and labels:
[1] = target: PF3D7_0919900 recombinant protein, KSVSF to KSASA (Plasmodium falciparum); test: ELISA; plates coated with 25 pmol/well of each recombinant Pip in PBS overnight at 4 °C; biotin-PfPP1 4 pmol/well in solution
[2] = target: PF3D7_0220000 recombinant protein with a stop in the second position of the KKVRF motif (Plasmodium falciparum); test: as above

biotin labeled PfPP1 (from UniProt Q8ILV1 1-304) (enzyme)
decrease of the binding against the wild protein (100 %) [1]: 70% | decrease of the binding against the wild protein (100 %) [2]: 86%
